According to US20220088190A1 (published 2022):

T1: RAS G12V peptide on HLA-A*03:01 (human)
T1 peptide: VVVGAVGVGK

T2: RAS G12R peptide on HLA-A*03:01 (human)
T2 peptide: VVVGARGVGK

T3: RAS G12D peptide on HLA-A*03:01 (human)
T3 peptide: VVVGADGVGK

T4: RAS G12C peptide on HLA-A*03:01 (human)
T4 peptide: VVVGACGVGK

T5: RAS wild type peptide on HLA-A*03:01 (human)
T5 peptide: VVVGAGGVGK

T6: RAS G12V peptide on HLA-A*11:01 (human)
T6 peptide: VVVGAVGVGK

T7: RAS G12C peptide on HLA-A*11:01 (human)
T7 peptide: VVVGACGVGK

T8: RAS wild type peptide on HLA-A*11:01 (human)
T8 peptide: VVVGAGGVGK

T9: RAS G12R peptide on HLA-B*07:02 (human)
T9 peptide: GARGVGKSAL

T10: RAS G12C peptide on HLA-B*07:02 (human)
T10 peptide: GACGVGKSAL

T11: RAS G12D peptide on HLA-B*07:02 (human)
T11 peptide: GADGVGKSAL

T12: RAS wild type peptide on HLA-B*07:02 (human)
T12 peptide: GAGGVGKSAL

T13: RAS G12V peptide on HLA-B*07:02 (human)
T13 peptide: GAVGVGKSAL

T14: RAS G12V peptide on HLA-A*11:01 (human)
T14 peptide: VVGAVGVGK

T15: RAS G12D peptide on HLA-A*11:01 (human)
T15 peptide: VVGADGVGK

T16: RAS G12C peptide on HLA-A*11:01 (human)
T16 peptide: VVGACGVGK

T17: RAS wild type peptide on HLA-A*11:01 (human)
T17 peptide: VVGAGGVGK

B1: TCR896 (TCR, V domains shown)
Valpha: AQKVTQAQTEISVVEKEDVTLDCVYETRDTTYYLFWYKQPPSGELVFLIRRNSFDEQNEISGRYSWNFQKSTSSFNFTITASQVVDSAVYFCALSEAGTYKYIFGTGTRLKVLA
Vbeta: DSGVTQTPKHLITATGQRVTLRCSPRSGDLSVYWYQQSLDQGLQFLIQYYNGEERAKGNILERFSAQQFPDLHSELNLSSLELGDSALYFCASSVAGGGQETQYFGPGTRLLVL
B2: TCR833 (TCR, V domains shown)
Valpha: RKEVEQDPGPFNVPEGATVAFNCTYSNSASQSFFWYRQDCRKEPKLLMSVYSSGNEDGRFTAQLNRASQYISLLIRDSKLSDSATYLCAVNPPDTGFQKLVFGTGTRLLVSP
Vbeta: DVKVTQSSRYLVKRTGEKVFLECVQDMDHENMFWYRQDPGLGLRLIYFSYDVKMKEKGDIPEGYSVSREKKERFSLILESASTNQTSMYLCASSLSFRQGLREQYFGPGTRLTVT
B3: TCR847 (TCR, V domains shown)
Valpha: SQQGEEDPQALSIQEGENATMNCSYKTSINNLQWYRQNSGRGLVHLILIRSNEREKHSGRLRVTLDTSKKSSSLLITASRAADTASYFCATFPNFGNEKLTFGTGTRLTIIP
Vbeta: DAGITQSPRHKVTETGTPVTLRCHQTENHRYMYWYRQDPGHGLRLIHYSYGVKDTDKGEVSDGYSVSRSKTEDFLLTLESATSSQTSVYFCAISESERYYEQYFGPGTRLTVT
B4: TCR864 (TCR, V domains shown)
Valpha: LAKTTQPISMDSYEGQEVNITCSHNNIATNDYITWYQQFPSQGPRFIIQGYKTKVTNEVASLFIPADRKSSTLSLPRVSLSDTAVYYCLVGDFNSNSGYALNFGKGTSLLVTP
Vbeta: GAGVSQSPSNKVTEKGKDVELRCDPISGHTALYWYRQRLGQGLEFLIYFQGNSAPDKSGLPSDRFSAERTGESVSTLTIQRTQQEDSAVYLCASKVYGYTFGSGTRLTVV
B5: TCR831 (TCR, V domains shown)
Valpha: ELKVEQNPLFLSMQEGKNYTIYCNYSTTSDRLYWYRQDPGKSLESLFVLLSNGAVKQEGRLMASLDTKARLSTLHITAAVHDLSATYFCAVDKDGGYQKVTFGTGTKLQVIP
Vbeta: GAVVSQHPSWVICKSGTSVKIECRSLDFQATTMFWYRQFPKQSLMLMATSNEGSKATYEQGVEKDKFLINHASLTLSTLTVTSAHPEDSSFYICSASPRAGQLSSYNSPLHFGNGTRLTVT
B6: TCR897 (TCR, V domains shown)
Valpha: SQQGEEDPQALSIQEGENATMNCSYKTSINNLQWYRQNSGRGLVHLILIRSNEREKHSGRLRVTLDTSKKSSSLLITASRAADTASYFCATDPGGFKTIFGAGTRLFVKA
Vbeta: EAGVAQSPRYKIIEKRQSVAFWCNPISGHATLYWYQQILGQGPKLLIQFQNNGVVDDSQLPKDRFSAERLKGVDSTLKIQPAKLEDSAVYLCASSLYGGSISYEQYFGPGTRLTVT

Experiments:
[1] = target: T1, RAS G12V peptide on HLA-A*03:01; experiment: multimer staining
[2] = target: T2, RAS G12R peptide on HLA-A*03:01; experiment: activation reporter or marker
[3] = target: T3, RAS G12D peptide on HLA-A*03:01; experiment: activation reporter or marker
[4] = target: T4, RAS G12C peptide on HLA-A*03:01; experiment: activation reporter or marker
[5] = target: T5, RAS wild type peptide on HLA-A*03:01; experiment: killing
[6] = target: T6, RAS G12V peptide on HLA-A*11:01; experiment: multimer staining
[7] = target: T7, RAS G12C peptide on HLA-A*11:01; experiment: activation reporter or marker
[8] = target: T1, RAS G12V peptide on HLA-A*03:01; experiment: cytokine release
[9] = target: T8, RAS wild type peptide on HLA-A*11:01; experiment: killing
[10] = target: T9, RAS G12R peptide on HLA-B*07:02; experiment: multimer staining
[11] = target: T10, RAS G12C peptide on HLA-B*07:02; experiment: activation reporter or marker
[12] = target: T11, RAS G12D peptide on HLA-B*07:02; experiment: activation reporter or marker
[13] = target: T12, RAS wild type peptide on HLA-B*07:02; experiment: activation reporter or marker
[14] = target: T13, RAS G12V peptide on HLA-B*07:02; experiment: activation reporter or marker
[15] = target: T12, RAS wild type peptide on HLA-B*07:02; experiment: killing
[16] = target: T14, RAS G12V peptide on HLA-A*11:01; experiment: multimer staining
[17] = target: T15, RAS G12D peptide on HLA-A*11:01; experiment: activation reporter or marker
[18] = target: T16, RAS G12C peptide on HLA-A*11:01; experiment: activation reporter or marker
[19] = target: T17, RAS wild type peptide on HLA-A*11:01; experiment: activation reporter or marker

Binder | binding result [6] | binding result [7] | binding result [8] | binding result [9] | binding result [10] | binding result [11] | binding result [12] | binding result [14] | other results
B1 | – | – | – | – | – | – | – | – | binding result [1]: recognises; binding result [2]: no recognition; binding result [3]: no recognition; binding result [4]: no recognition; binding result [5]: no recognition
B2 | recognises | recognises | no recognition | no recognition | – | – | – | – | –
B3 | – | – | – | – | recognises | no recognition | no recognition | no recognition | binding result [13]: no recognition
B4 | – | – | – | – | recognises | no recognition | no recognition | no recognition | binding result [15]: no recognition
B5 | recognises | recognises | no recognition | no recognition | – | – | – | – | –
B6 | – | – | – | – | – | – | – | – | binding result [16]: recognises; binding result [17]: recognises; binding result [18]: recognises; binding result [19]: no recognition
